Substitutions are numbered along the chain they refer to. Names may count otherwise.

The labels stand for the following.
B1: FIXa-Y155F/K228N/R318Y/R338E/R403E/E410N (protein)
chain 1: YNSGKLEEFVQGNLERECMEEKCSFEEAREVFENTERTTEFWKQYVDGDQCESNPCLNGGSCKDDINSYECWCPFGFEGKNCELDVTCNIKNGRCEQFCKNSADNKVVCSCTEGYRLAENQKSCEPAVPFPCGRVSVSQTSKLTR
chain 2: VVGGEDAKPGQFPWQVVLNGKVDAFCGGSIVNEKWIVTAAHCVETGVNITVVAGEHNIEETEHTEQKRNVIRIIPHHNYNAAINKYNHDIALLELDEPLVLNSYVTPICIADKEYTNIFLKFGSGYVSGWGRVFHKGYSALVLQYLRVPLVDRATCLESTKFTIYNNMFCAGFHEGGRDSCQGDSGGPHVTEVEGTSFLTGIISWGEECAMKGKYGIYTKVSEYVNWIKNKTKLT
B2: FIXa-K247N/N249S/R318Y/R338E/E410N (protein)
chain 1: B1 chain 1
chain 2: B1 chain 2 with N48K, K67N, N69S, E223R
B3: FIXa-D104N/K106S/K247N/N249S/R318Y/R338E/R403E/E410N (protein)
chain 1: B1 chain 1 with D104N, K106S
chain 2: B1 chain 2 with N48K, K67N, N69S
B4: FIXa-K247N/N249S/R318Y/R338E/R403E/E410N (protein)
chain 1: B1 chain 1
chain 2: B1 chain 2 with N48K, K67N, N69S
B5: FIXa-R318Y/R338E/R403E/E410N/T412V (protein)
chain 1: B1 chain 1
chain 2: B1 chain 2 with N48K, T232V
B6: FIXa-A103N/N105S/K247N/N249S/R318Y/R338E/R403E/E410N (protein)
chain 1: B1 chain 1 with A103N, N105S
chain 2: B1 chain 2 with N48K, K67N, N69S
B7: FIXa-R318Y/R338E/R403E/E410N/T412A (protein)
chain 1: B1 chain 1
chain 2: B1 chain 2 with N48K, T232A
B8: FIXa-Y155F/K247N/N249S/R318Y/R338E/E410N (protein)
chain 1: B1 chain 1
chain 2: B1 chain 2 with N48K, K67N, N69S, E223R
B9: FIXa-I251S/R318Y/R338E/R403E/E410N (protein)
chain 1: B1 chain 1
chain 2: B1 chain 2 with N48K, I71S
B10: FIXa-D85N/K228N/R318Y/R338E/R403E/E410N (protein)
chain 1: B1 chain 1 with D85N
chain 2: B1 chain 2
B11: FIXa-K228N/K247N/N249S/R318Y/R338E/R403E/E410N (protein)
chain 1: B1 chain 1
chain 2: B1 chain 2 with K67N, N69S
B12: FIXa-I251S/R318Y/R338E/E410N (protein)
chain 1: B1 chain 1
chain 2: B1 chain 2 with N48K, I71S, E223R
B13: FIXa-Y155F/K247N/N249S/R318Y/R338E/R403E/E410N (protein)
chain 1: B1 chain 1
chain 2: B1 chain 2 with N48K, K67N, N69S
B14: FIXa-R318Y/R338E/R403E/E410S (protein)
chain 1: B1 chain 1
chain 2: B1 chain 2 with N48K, N230S
B15: FIXa-D104N/K106S/I251S/R318Y/R338E/R403E/E410N (protein)
chain 1: B1 chain 1 with D104N, K106S
chain 2: B1 chain 2 with N48K, I71S
B16: FIXa-Y155F/I251S/R318Y/R338E/R403E/E410N (protein)
chain 1: B1 chain 1
chain 2: B1 chain 2 with N48K, I71S
B17: FIXa Y155F/K247N/N249S/R318Y/R338E/R403E/E410N (protein)
chain 1: B1 chain 1
chain 2: B1 chain 2 with N48K, K67N, N69S
B18: FIXa Y155F/K228N/R318Y/R338E/R403E/E410N (protein)
chain 1: B1 chain 1
chain 2: B1 chain 2
B19: FIXa D104N/K106S/I251S/R318Y/R338E/E410N (protein)
chain 1: B1 chain 1 with D104N, K106S
chain 2: B1 chain 2 with N48K, I71S, E223R
B20: FIXa Y155F/K247N/N249S/R318Y/R338E/E410N (protein)
chain 1: B1 chain 1
chain 2: B1 chain 2 with N48K, K67N, N69S, E223R
B21: FIXa D104N/K106S/K247N/N249S/R318Y/R338E/R403E/E410N (protein)
chain 1: B1 chain 1 with D104N, K106S
chain 2: B1 chain 2 with N48K, K67N, N69S
B22: FIXa Y259F/K265T/Y345T (protein)
chain 1: B1 chain 1
chain 2: B1 chain 2 with N48K, Y79F, K85T, Y138R, E158R, Y165T, E223R, N230E
B23: FIXa R318Y/R338E/R403E/E410S (protein)
chain 1: B1 chain 1
chain 2: B1 chain 2 with N48K, N230S
B24: FIXa K228N/K247N/N249S (protein)
chain 1: B1 chain 1
chain 2: B1 chain 2 with K67N, N69S, Y138R, E158R, E223R, N230E
B25: FIXa D104N/K106S/I251S/R318Y/R338E/R403E/E410N (protein)
chain 1: B1 chain 1 with D104N, K106S
chain 2: B1 chain 2 with N48K, I71S
B26: FIXa R318Y/R338E/E410S (protein)
chain 1: B1 chain 1
chain 2: B1 chain 2 with N48K, E223R, N230S
B27: FIXa K247N/N249S/R318Y/R338E/E410N (protein)
chain 1: B1 chain 1
chain 2: B1 chain 2 with N48K, K67N, N69S, E223R
B28: FIXa I251S/R318Y/R338E/R403E/E410N (protein)
chain 1: B1 chain 1
chain 2: B1 chain 2 with N48K, I71S
B29: FIXa I251S/R318Y/R338E/E410N (protein)
chain 1: B1 chain 1
chain 2: B1 chain 2 with N48K, I71S, E223R
B30: FIXa K247N/N249S/R318Y/R338E/R403E/E410N (protein)
chain 1: B1 chain 1
chain 2: B1 chain 2 with N48K, K67N, N69S
B31: FIXa Y155F/I251S/R318Y/R338E/R403E/E410N (protein)
chain 1: B1 chain 1
chain 2: B1 chain 2 with N48K, I71S
B32: FIXa K228N/R318Y/R338E/R403E/E410N (protein)
chain 1: B1 chain 1
chain 2: B1 chain 2
B33: FIXa A103N/N105S/K247N/N249S/R318Y/R338E/R403E/E410N (protein)
chain 1: B1 chain 1 with A103N, N105S
chain 2: B1 chain 2 with N48K, K67N, N69S
B34: FIXa D85N/K228N/R318Y/R338E/R403E/E410N (protein)
chain 1: B1 chain 1 with D85N
chain 2: B1 chain 2
B35: FIXa D104N/K106S/Y155F/K228N/K247N/N249S (protein)
chain 1: B1 chain 1 with D104N, K106S
chain 2: B1 chain 2 with K67N, N69S, Y138R, E158R, E223R, N230E

In one data set the target is Factor X, P00742.
Chain of Factor X, P00742 (P00742 whole entry, looked up): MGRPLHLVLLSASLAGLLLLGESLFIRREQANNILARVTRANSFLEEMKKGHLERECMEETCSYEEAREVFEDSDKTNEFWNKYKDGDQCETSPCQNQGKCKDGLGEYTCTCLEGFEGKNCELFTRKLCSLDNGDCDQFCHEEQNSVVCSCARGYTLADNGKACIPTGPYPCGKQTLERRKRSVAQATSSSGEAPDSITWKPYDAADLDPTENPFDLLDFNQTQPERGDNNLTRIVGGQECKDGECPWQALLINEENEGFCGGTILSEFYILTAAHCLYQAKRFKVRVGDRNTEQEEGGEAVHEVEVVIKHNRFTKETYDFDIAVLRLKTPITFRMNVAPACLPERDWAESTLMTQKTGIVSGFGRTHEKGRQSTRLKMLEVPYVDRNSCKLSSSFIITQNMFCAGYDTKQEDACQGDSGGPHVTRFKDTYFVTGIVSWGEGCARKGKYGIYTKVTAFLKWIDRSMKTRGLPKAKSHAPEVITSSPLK
For the protein B1, the kcat of FX activation by FIXa (Xase complex with FVIIIa, PC/PS vesicles, Ca2+) is 9.7 s⁻¹.
On the same count and under the same terms, the value for B2 was 3.8 s⁻¹; that for B3 was 5.2 s⁻¹; that for B4 was 5.8 s⁻¹.
On the same count and under the same terms, the result for B5 reads 7.9 s⁻¹; that for B6, 4.1 s⁻¹.
Regarding B7, the kcat of FX activation by FIXa (Xase complex with FVIIIa, PC/PS vesicles, Ca2+) was determined as 8.4 s⁻¹.
With B8, the kcat of FX activation by FIXa (Xase complex with FVIIIa, PC/PS vesicles, Ca2+) was 4.3 s⁻¹.
Consider B9, for which the kcat of FX activation by FIXa (Xase complex with FVIIIa, PC/PS vesicles, Ca2+) is 4.8 s⁻¹.
The same measure, in the same setting: the value for B10 was 6 s⁻¹; that for B11 was 6.1 s⁻¹; that for B12 was 6.2 s⁻¹.
Still for that read-out and setting: the result for B13 reads 6.5 s⁻¹; that for B14, 5.8 s⁻¹.
B15: the kcat of FX activation by FIXa (Xase complex with FVIIIa, PC/PS vesicles, Ca2+) was determined as 5.5 s⁻¹.
Regarding B16, the kcat of FX activation by FIXa (Xase complex with FVIIIa, PC/PS vesicles, Ca2+) worked out at 7.2 s⁻¹.

For a further data set, the target named is Factor X (FX), P00742.
Chain of Factor X (FX), P00742 (P00742 whole entry, looked up): as above
Broadly, the kcat/KM is the turnover number divided by the Michaelis constant. As for B5, the kcat/KM stood at 1.9e+08 M⁻¹ s⁻¹.
Still for that read-out and setting: the result for B6 reads 1.5e+08 M⁻¹ s⁻¹; that for B7, 2.6e+08 M⁻¹ s⁻¹.
Consider B8, for which the kcat/KM came to 3.3e+08 M⁻¹ s⁻¹.
As for B12, the kcat/KM was found to be 3.9e+08 M⁻¹ s⁻¹.
Same read-out and setting: the value for B13 was 1.9e+08 M⁻¹ s⁻¹; that for B14 was 2.1e+08 M⁻¹ s⁻¹.

For a further data set, the target named is plasma purified human antithrombin III (AT-III) in complex with full-length unfractionated heparin (UFH).
As to B17, the K0.5-mut/K0.5-wt is over 517 fold.
With B18, the K0.5-mut/K0.5-wt was over 517 fold.
The same measure, in the same setting: the value for B19 was 464 fold; that for B20 was 200 fold; that for B21 was over 517 fold.
The same measure, in the same setting: the result for B22 reads 0.3 fold; that for B23, over 517 fold; that for B24, 4.4 fold.
B25: the K0.5-mut/K0.5-wt is over 517 fold.
B26 displayed a K0.5-mut/K0.5-wt of 279 fold.
For B27, the K0.5-mut/K0.5-wt was determined as 78.3 fold.
The protein B28 came in with a K0.5-mut/K0.5-wt of over 517 fold.
On the same count and under the same terms, the value for B29 was 303 fold; that for B30 was 418 fold; that for B31 was over 517 fold.
In the case of B32, the K0.5-mut/K0.5-wt is over 517 fold.
Protein B33 showed a K0.5-mut/K0.5-wt of 129 fold.
The protein B34 showed a K0.5-mut/K0.5-wt of over 517 fold.
For B35, the K0.5-mut/K0.5-wt is 1.6 fold.

A further data set deals with plasma purified human AT-III (antithrombin III), in complex with full-length unfractionated heparin (AT-III/UFH).
As to B1, the K0.5-mut/K0.5-wt (against Catalyst Biosciences WT FIXa) is over 517.
Take B2: the K0.5-mut/K0.5-wt (against Catalyst Biosciences WT FIXa) worked out at 78.3.
Regarding B3, the K0.5-mut/K0.5-wt (against Catalyst Biosciences WT FIXa) was over 517.
B4 returned a K0.5-mut/K0.5-wt (against Catalyst Biosciences WT FIXa) of 418.
Protein B5 registered a K0.5-mut/K0.5-wt (against Catalyst Biosciences WT FIXa) of over 517.
B6: the K0.5-mut/K0.5-wt (against Catalyst Biosciences WT FIXa) came out at 129.
Protein B7 gave a K0.5-mut/K0.5-wt (against Catalyst Biosciences WT FIXa) of over 517.
Still for that read-out and setting: the value for B8 was 200; that for B9 was over 517.
Take B10: the K0.5-mut/K0.5-wt (against Catalyst Biosciences WT FIXa) was over 517.
The same measure, in the same setting: the value for B11 was over 517.
Take B12: the K0.5-mut/K0.5-wt (against Catalyst Biosciences WT FIXa) is 303.
B13: the K0.5-mut/K0.5-wt (against Catalyst Biosciences WT FIXa) is over 517.
Same read-out and setting: the result for B14 reads over 517; that for B15, over 517; that for B16, over 517.

Values taken from patent US20210230570.
